According to patent US20180044415A1 (AbbVie / Abbott, published 2018):
Residue numbers refer to the chain shown, from its start.

T1: human DLL3 (immobilized human DLL3 or h293-hDLL3 cells) (human, UniProt Q9NYJ7 27-492, limits assumed)
T1 construct: the sentence says 'immobilized human DLL3 or h293-hDLL3 cells'
T1 sequence: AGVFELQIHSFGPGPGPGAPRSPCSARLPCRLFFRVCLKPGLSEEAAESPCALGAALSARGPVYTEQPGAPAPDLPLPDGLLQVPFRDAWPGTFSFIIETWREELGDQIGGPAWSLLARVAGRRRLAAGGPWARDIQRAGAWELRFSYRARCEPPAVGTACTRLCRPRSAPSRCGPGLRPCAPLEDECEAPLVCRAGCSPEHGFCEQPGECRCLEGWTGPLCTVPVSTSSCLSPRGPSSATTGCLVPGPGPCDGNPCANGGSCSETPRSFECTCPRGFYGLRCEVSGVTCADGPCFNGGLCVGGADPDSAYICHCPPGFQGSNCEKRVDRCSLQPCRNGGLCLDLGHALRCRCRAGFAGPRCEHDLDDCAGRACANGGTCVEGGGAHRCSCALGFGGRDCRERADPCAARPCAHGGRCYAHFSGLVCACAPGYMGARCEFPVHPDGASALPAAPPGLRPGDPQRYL

T2: DLL3 extracellular domain (amino acids 27-466) displayed on yeast (human, UniProt Q9NYJ7 27-466)
T2 construct: Yeast surface display construct with HA tag; also called DLL3 ECD; wild type DLL3 ECD
T2 sequence: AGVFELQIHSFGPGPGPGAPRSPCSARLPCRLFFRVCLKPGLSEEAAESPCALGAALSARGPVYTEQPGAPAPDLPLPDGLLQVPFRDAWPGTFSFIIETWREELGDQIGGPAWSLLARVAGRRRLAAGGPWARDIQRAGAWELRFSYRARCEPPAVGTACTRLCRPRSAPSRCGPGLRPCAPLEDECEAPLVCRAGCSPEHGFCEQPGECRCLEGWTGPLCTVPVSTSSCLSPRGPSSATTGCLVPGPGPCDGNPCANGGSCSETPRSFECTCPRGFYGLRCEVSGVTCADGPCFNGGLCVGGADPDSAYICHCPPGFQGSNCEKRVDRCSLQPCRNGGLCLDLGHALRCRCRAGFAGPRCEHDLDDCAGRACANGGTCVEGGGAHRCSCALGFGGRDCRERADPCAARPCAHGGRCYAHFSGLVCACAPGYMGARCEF

B1: SC16.34 (antibody, V domains shown)
VH: QIQLVQSGPELKRPGETVKISCKASGYTFTNYGMNWVKQAPGKGLKWMGWINTYTGDPTYADDFKGRFAFSLETSASTAYLQINNLKNEDTATYFCARIGGNSPSDYWGQGTSLTVSS
VL: SIVMTQTPKFLLVSAGDRVTITCKASQSVSNDVAWYQQKPGQSPKLLIYYASNRYSGVPDRFTGSGYGTDFTFTISTVQAEDLAVYFCQQDYSSPWTFGGGTKLEIK
notes: murine mAb; variable regions only
B2: SC16.56 (antibody, V domains shown)
VH: B1 VH with R13K, G49A, D57E, Y80S, N84I, G101D, N102S, S113T
VL: B1 VL with A34V, S56T, T63A, T72S, S93T, K107R
notes: as for B1
B3: SC16.133 (antibody, V domains shown)
VH: QVQLKESGPGLVAPSQSLSITCTVSGFSLTNYAVHWVRQSPGKGLEWLGVIWSDGSTDYNAAFISRLSISKDNSKSQVFFKMNSLQADDTAMYYCARKKGGWFPWFAYWGQGTLVTVSA
VL: B1 VL with Y50C, S56T, W96L, G100A, I106L
notes: as for B1
B4: SC16.23 (antibody, V domains shown)
VH: QVTLKESGPGILQPSQTLSLTCSFSGFSLSTSNTGIGWIRQPSGTGLEWLAHIWWNDDKYYNPSLKSRLTISKETSNNQVFLKITNVDTADTASYFCVQIGRDYSNYAWYFDVWGAGTTVTVSS
VL: QIVLTQSPAIMSASPGEKVTLTCSASSSVSSRYLYWYQQKPGSSPKLWIYSTSNLASGVPARFSGSGSGTSYSLIISSMEAEDAASYFCHQWSNYPLTFGAGTKLELK
notes: as for B1
B5: SC16.137 (antibody, V domains shown)
VH: EVQLVESGGDLVKPGGSLKLSCAASGFTFSSYGMSWVRQTPDKRLEWVATISSGGSYTYYPDSVKGRFTISRDNAKNTLYLQMSSLKSEDTAMYYCARRRADAMDYWGQGTSVTVSS
VL: QIVLTQSPAIMSASLGEEITLTCSASSSVSYMHWYQQKSGTSPKLLIYSTSNLASGVPSRFSGSGSGTFYSLTISSVEAEDAADYYCHQWSSYHTFGGGTKLEIKR
notes: as for B1
B6: SC16.140 (antibody, V domains shown)
VH: QVQLQQSGPELVRPGASVKMSCKASGYTFTSYWMHWVKQRPGQGLEWIGMIDPSNSETRLNQKFKDKATLNVDKSSNTAYMQLSSLTSEDSAVYYCAVMDYYFDYWGQGTTLTVSS
VL: DIVLTQSLASLAVSLGQRATISCRASKSVSTSGYSYMHWYQQKPGQPPKLLIYLASNLESGVPARFSGSGSGTDFTLNIHPVEDEDAATYYCQHSRELPFTFGGGTKLEIK
notes: as for B1
B7: SC16.131 (antibody, V domains shown)
VH: QVQLKESGPGLVAPSQSLSITCTVSGFSLTNYGVHWVRQPPGKGLEWLGVIWAGGITNYNSALMSRLSISEDNSKSQVFLKMNSLQTDDTAMYYCARNLGPYAMDYWGQGTSVTVSS
VL: DIQMNQSPSSLSASLGDTITITCHVSQNINVWLSWYQQKPGNIPKLLIQKASNLHTGVPSRFSGSGSGTGFTLTISSLQPEDIATYYCQQGQSYPFTFGSGTKLEIK
notes: as for B1
B8: SC16.138 (antibody, V domains shown)
VH: QVQLKESGPGLVAPSQSLSITCTVSGFSLTDYGVSWIRQPPGKGLEWLGVVWGGGSTYYNSALKSRLSISKDNSKSQVFLKMNSLQTDDTAMYYCAKQRGQYGAYWGQGTLVTVSA
VL: DIQMTQSPASQSASLGESVTITCLASQTIGTWLAWYQQKPGKSPQLLIYSATSLADGVPSRFSGSGSGTKFSFKISSLQAEDFVSYYCQQLYSTPWTFGGGTKLEIK
notes: as for B1
B9: SC16.130 (antibody, V domains shown)
VH: EVQLQQSGPELVKPGASVKMSCKASGYTFTSYVMHWVKQKPGQGLEWIGYINPYNDGTEYNEKFKGKATLTSDKSSSTAYMELSSLTSEDSAVYYCARGVYDGYSYFDYWGQGTTLTVSS
VL: DIQLTQSPASLSASVGETVTITCRASGSIHNYLAWYQQKQGKSPQLLVYNAKTLVDGVPSRFSGSGSGTQYSLKINSLQPEDFGYYYCQHFWTTPWTFGGGTKLEIK
notes: as for B1
B10: SC16.136 (antibody, V domains shown)
VH: EVQLQQSGPELVKPGASVKMSCKASGYTFTSYVMHWVKQKPGQGLEWIGYINPYNDGTKYNEKFKGKATLTSDKSSSTAYMELSSLTSEDSAVYYCARDRSGYEDYYGMDYWGQGTSVTVSS
VL: B9 VL with L4M, S28N, Q45H, V55A, Y85S, T93S
notes: as for B1
B11: SC16.135 (antibody, V domains shown)
VH: QVQLQQSGAELVRPGTSVKVSCKASGYAFTNYLIEWVKQRPGQGLEWIGVINPGSGGTNSNEKFKAKATLTADKSSSTAYMQLSSLTSADSAVYFCARSDYDYAFYAMDYWGQGTSVTVSS
VL: DIKMTQSPSSMYASLGERVTITCKASQDINRYLSWFQQKPGKSPKTLIYRANRLVDGVPSRFSGSGSGQDYSLTISSLEYEDMGIYYCLQYDEFPFTFGSGTKLEIK
notes: as for B1
B12: SC16.141 (antibody, V domains shown)
VH: QVQLKQSGPGLVAPSQSLFITCTVSGFSLTSYEINWVRQPPGKGLEWLGVIWTGGSTNYNSALISRLSISKDNSKSLVFLKMNSLQTDDTAIYYCVRGVYAMDYWGQGTSVTVSS
VL: B11 VL with R31S
notes: as for B1

Target: T1, human DLL3 (immobilized human DLL3 or …)
Test: hybridoma screening on immobilized human DLL3 or on h293-hDLL3 cells

Binding result, binds:
B1
B2
B3
B4
B5
B6
B7
B8
B9
B10
B11
B12

Target: T2, DLL3 extracellular domain (amino acids …)
Test: fine epitope mapping
Method: To test for binding to a particular construct, 200,000 induced yeast cells expressing the desired construct were washed twice in PBS+1 mg/mL BSA (PBSA), and incubated in 50 μL of PBSA with biotinylated anti-HA clone 3F10 (Roche Diagnostics) at 0.1 μg/mL and either 50 nM purified antibody or 1:2 dilution of unpurified supernatant from hybridomas cultured for 7 days. Cells were incubated for 90 minutes on ice, followed by two washes in PBSA. Cells were then incubated in 50 μL PBSA with the appropriate secondary antibodies: for murine antibodies, Alexa 488 conjugated streptavidin, and Alexa 647 conjugated goat anti mouse (Life Technologies) were added at 1 μg/mL each; and for humanized or chimeric antibodies, Alexa 647 conjugated streptavidin (Life Technologies) and R-phycoerythrin conjugated goat anti human (Jackson Immunoresearch) were added at 1 μg/mL each. After a twenty minute incubation on ice, cells were washed twice with PBSA and analyzed on a FACS Canto II. Antibodies that bound to DLL3-DLL1 chimera were designated as binding to the N-terminal region+DSL. Antibodies that bound specifically to an epitope present on a particular EGF-like domain were designated as binding to its respective domain (FIG. 2.)
Alternatively, a yeast display method (Chao et al., 2007, PMID: 17406305) was used to map the epitopes of selected antibodies. Libraries of DLL3 ECD mutants were generated with error prone PCR using nucleotide analogues 8-oxo-2′deoxyguanosine-5′-triphosphate and 2′-deoxy-p-nucleoside-5′triphosphate (TriLink Bio) for a target mutagenesis rate of one amino acid mutation per clone. These were transformed into a yeast display format. Using the technique described above for domain-level mapping, the library was stained for HA and antibody binding at 50 nM. […] These clones were re-grown, and subjected to another round of FACS sorting for loss of binding to the target antibody. Using the Zymoprep Yeast Plasmid Miniprep kit (Zymo Research), individual ECD clones were isolated and sequenced. […]

Binding result, binds:
B1
B2
B4
